Measurements: patent US20140315215A1 (SECRETARY OF STATE FOR HEALTH, published 2014)

Biological target: T1, hen egg lysozyme (hen, UniProt P00698 19-147)
T1 construct: Antigen immobilised on the microtitre plate in all ELISAs; also called HEL
Test: ELISA on immobilised HEL, tAK activity read-out; fusion extracted with glutathione and heat treated, compared with the BSA control
Description: FIG. 1 illustrates functional recovery of correctly folded single-domain antibody (VNAR) in the presence of the Sac tAK domain and glutathione. The fusion proteins were assessed for their ability to bind to hen egg lysozyme immobilized onto a microtitre plate in an ELISA format, using the tAK activity as the assay read-out. In each case background binding was measured using BSA as a non-relevant antigen control. In the case of Tma tAK fusions, no significant increase in binding was observed above the background binding to BSA with either glutathione extraction, heat treatment or a combination of the two.

T1 sequence (P00698 19-147): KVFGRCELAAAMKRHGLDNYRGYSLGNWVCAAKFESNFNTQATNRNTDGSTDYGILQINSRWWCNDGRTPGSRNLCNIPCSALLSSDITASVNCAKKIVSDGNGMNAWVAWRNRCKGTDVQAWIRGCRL

- fold increase in binding: ~10 fold
B1: SacAK-F3-VNAR fusion protein (Sulfolobus acidocaldarius adenylate kinase, [GGGGS]3 flexible linker F3, hen egg lysozyme specific shark VNAR) (VNAR)
chain: MLATALKLGYAKDRDEMRKLSVEKQKKLQIDAAKGIAEEARAGGEGYLFIDTHAVIRTPSGYLPGLPSYVITEINPSVIFLLEADPKIILSRQKRDTTRNRNDYSDESVILETINFARYAATASAVLAGSTVKVIVNVEGDPSIAANEIIRSMKQSTGGGGSGGGGSGGGGSGSARVDQTPRSVTKETGESLTINCVLRDASYALGSTCWYRKKSGSTNEESISKGGRYVETVNSGSKSFSLRINDLTVEDGGTYRCGLGVAGGYCDYALCSSRYAECGDGTAVTVN
notes: also called Sac tAK fusions; the fusion
